The values that follow come from paper PMC7327165 (mBio, 2020).

In test [1] the target is full-length monomeric gp120 (clade B, BaL strain) (HIV-1 clade B, strain BaL, UniProt Q2MKA8, strain). Kind of test: flow cytometry on cells. As to conditions: one partner purified. In general terms: In flow cytometry, cells or beads pass a laser one at a time.
The target of test [2] is T1, full-length single-chain gp120BaL-CD4 complex (FLSC) (HIV-1 clade B, BaL (gp120 moiety); CD4 …, UniProt Q2MKA8, strain).
T1 construct: also called full-length single-chain protein
Kind of test: FRET or BRET + other: fluorescence correlation spectroscopy. The following applies: both partners purified. A general note: In BRET a luciferase serves as donor, and the signal depends on an acceptor being close.

B1: A32 mAb (antibody, V domains shown)
VH: QVQLQESGPGLVKPSQTLSLSCTVSGGSSSSGAHYWSWIRQYPGKGLEWIGYIHYSGNTYYNPSLKSRITISQHTSENQFSLKLNSVTVADTAVYYCARGTRLRTLRNAFDIWGQGTMVTVSS
VL: VLTQPPSASGSPGQSVTISCTGTSSDVGGYNYVSWYQHHPGKAPKLIISEVNNRPSGVPDRFSGSKSGNTASLTVSGLQAEDEAEYYCSSYTDIHNFVFGGGTKLTVL
B1: in test [1], the binding result is “binds”.

B2: DH677.3 mAb (antibody, V domains shown)
VH: QVQLVQSGAEVQKPGASVKVSCKASGYTFASYDINWVRQATGQGLEWMGWMNPKTGNTGYAQKFQGRVTLTRNTSISTAYMELTSLRSEDTAVYYCATYRIIAAVGYRYFQYWGQGTLVTVSS
VL: DIQLTQSPSSLSASVGDSVTITCRASQGFGNYLAWYQQRPGKVPEVLIYAATTLQSGVPSRFSGSGSGTDFTLTISSLQPEDVATYYCQKYNSAPFTFGQGTRLEIK
Turning to B2, the binding result in test [1] is given as “binds”.

B3: N12-i3 mAb (antibody, V domains shown)
VH: QVQLVQSGAEVKKPGSSVRVSCKASGGSFSRYTVNWVRQAPGQGLEWMARFIPIFNMPDYAPKFQGRITITADESTSTAYLELSSLTSDDTAVYYCASRQHHEYFQEWGQGTLVTVSS
VL: EIVLTQSPGTLSMSPGERATLSCRASRTVSSSNLAWYQQKPGQAPRLLIYDVSSRATGIPDRFSGRGSGTDFTLTISRLEPEDFAVYYCQQYGTSPLTFGGGTKVEIK
On to B3, for which the binding result in test [1] is reported as “binds”.

B4: CH55 mAb (antibody, V domains shown)
VH: QVQLVQSGAEVKKPGASVKVSCKASGYIFISYFMHWVRQAPGQGLEWMGIINPSSGDTRYAQKFQGRVTMTRDTSTNTVYMELSSLRSDDTAVYYCARRPGGLERHNWLDPWGQGTLVTVSS
VL: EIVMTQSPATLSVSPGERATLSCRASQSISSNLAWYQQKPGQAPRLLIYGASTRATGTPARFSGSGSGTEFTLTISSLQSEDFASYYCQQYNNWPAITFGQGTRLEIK
For B4, the binding result in test [1] is on record as “binds”.

B5: C11 mAb (antibody, V domains shown)
VH: EVQLVESGGGLVKPGGSLRLSCAASGFTFSSYSMNWVRQAPGRGLEWVSSISNTSTYIYYADSVEGRFTLSRDNAKNSLYLQMNSLRAEDTAVYYCARANQHFDWLLSLLGGYHYYGMDVWGQGTTVTVSS
VL: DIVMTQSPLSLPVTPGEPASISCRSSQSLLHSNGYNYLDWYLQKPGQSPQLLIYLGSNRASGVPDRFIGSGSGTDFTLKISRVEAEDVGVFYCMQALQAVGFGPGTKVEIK
As for B5, the binding result in test [1] is “binds”.

B6: C11 Fab (Fab, V domains shown)
VH: EVQLVESGGGLVKPGGSLRLSCAASGFTFSSYSMNWVRQAPGRGLEWVSSISNTSTYIYYADSVEGRFTLSRDNAKNSLYLQMNSLRAEDTAVYYCARANQHFDWLLSLLGGYHYYGMDVWGQGTTVTVSS
VL: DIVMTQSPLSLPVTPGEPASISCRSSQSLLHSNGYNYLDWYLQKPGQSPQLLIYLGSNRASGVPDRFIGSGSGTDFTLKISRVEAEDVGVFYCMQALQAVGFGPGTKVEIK
On to B6, for which, in test [2], the binding result is reported as “binds”.

B7: CH54 mAb (antibody, V domains shown)
VH: QVQLVQSGPEVKKPGTSMKISCKASGFTFTRSTMQWVRQARGQRLEWIGWIVVGSGNTNYAQKFQERVTITRDMSTSTAYMELSSLRSEDTAVYYCAAAPVGPTSSDYWGQGTLVTVSS
VL: DIQMTQSPSSLSASVGDRVTITCRASQSIINYLNWYQQKPGRAPKLLIYAASSLLSGVPSRFSGSGSGTDFTLTISSLQPEDFATYYCQQSYSTPYTFGQGTKLEIK
Turning to B7, the binding result in test [1] was “binds”.
